Test results published in patent US20090298765A1 (Takeda / Millennium, published 2009).
Non-standard residues stand in square brackets, D forms with d. Primed or numbered codes have the meaning given here. No end group written: not given here. *: point of attachment. GuAmb = 4-guanidinomethylbenzoyl, N=C(N)NCc1ccc(C(=O)*)cc1; Phe(3-CF3) = N[C@@H](Cc1cccc(C(F)(F)F)c1)C(=O)O; Arg(Et)′ = arginine carrying an ethyl group; Phe(4-CN) = N#Cc1ccc(C[C@H](N)C(=O)O)cc1; Phe(4-Cl) = N[C@@H](Cc1ccc(Cl)cc1)C(=O)O; Phe(3-F) = N[C@@H](Cc1cccc(F)c1)C(=O)O; Phe(4-F) = N[C@@H](Cc1ccc(F)cc1)C(=O)O; Phe(2-F) = N[C@@H](Cc1ccccc1F)C(=O)O; Arg(Me) = CNC(=N)NCCC[C@H](N)C(=O)O; Fmoc = O=C(OCC1c2ccccc2-c2ccccc21)*; 2Pal = N[C@@H](Cc1ccccn1)C(=O)O; 3Pal = N[C@@H](Cc1cccnc1)C(=O)O; d3Pal = N[C@H](Cc1cccnc1)C(=O)O; Cha = N[C@@H](CC1CCCCC1)C(=O)O; Arg(Et)″ = ethylated arginine; Dab = NCC[C@H](N)C(=O)O; azaGly = NNC(=O)O

Tests used:
[1] = molecular target: T1, human OT7T175 (metastin receptor) (human, UniProt Q969F8 1-398); test: competition with Cy-5 metastin (40-54) on hOT7T175-CHO cells, FMAT
T1 construct: expressed on CHO cells; also called hOT7T175; hOT7T175-expressed CHO cells
Method: hOT7T175-Expressed CHO cells were cultured in MEM-α medium (nucleic acid-free) containing 10% dialyzed serum. The medium was removed and the adhered cells were washed with PBS. Then, PBS containing 5 mM EDTA was added and the cells were scraped from a flask with a cell scraper.
To each well of a 96-Well Black Clear Bottom Microplate (Applied Biosystems, Inc.), 10 μL of assay buffer containing 1% dimethylsulfoxide was added to examine total binding, 10 μL of 10 μM non-labeled peptide (having the same amino acid sequence as that of labeled one) solution diluted with assay buffer to examine non-specific binding, and 10 μL of a test compound diluted with assay buffer to examine a binding inhibition activity of the test compound, and furthermore, 90 μL each of the cell suspension was dispensed to each well. […] Specific binding is calculated as non-specific binding subtracted from total binding. The binding inhibition activity of a test compound is shown by a ratio of the value obtained by subtracting a measured value in presence of a test compound from the total binding to the specific binding.

[2] = molecular target: T1, human OT7T175 (metastin receptor); test: cell-based or functional assay

T1 sequence (Q969F8 whole entry L364H): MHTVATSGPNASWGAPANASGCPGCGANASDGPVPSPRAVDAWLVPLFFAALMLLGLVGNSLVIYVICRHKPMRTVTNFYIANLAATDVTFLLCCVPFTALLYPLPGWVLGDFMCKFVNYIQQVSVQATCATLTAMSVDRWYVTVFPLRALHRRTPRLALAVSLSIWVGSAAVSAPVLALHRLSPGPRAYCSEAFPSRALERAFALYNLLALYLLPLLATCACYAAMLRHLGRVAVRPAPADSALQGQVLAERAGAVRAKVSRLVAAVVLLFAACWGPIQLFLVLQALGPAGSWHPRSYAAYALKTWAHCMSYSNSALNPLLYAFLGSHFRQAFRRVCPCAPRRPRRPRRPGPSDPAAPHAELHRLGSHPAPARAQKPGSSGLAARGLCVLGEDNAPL

| Binder | IC50 [1] [nM] | Ca ion level-increasing activity (FLIPR) [2] |
| --- | --- | --- |
| YNWNSFGLR[Phe(4-F)]-NH2 (also called Compound No. 61) [[Phe(4F)10]MS10] | 13 | – |
| [dY]NWNSFGL[Arg(Et)″]F-NH2 (also called Compound No. 192) [[D-Tyr1,Arg(Et)9]MS10] | 530 | – |
| YNWNSF[azaGly]L[Arg(Me)]F-NH2 (also: bond 1-2 CONH replaced by CH2NH, also called Compound No. 299) [[1Ψ2,CH2NH,AzaGly7,Arg(Me)9]-MS10] | 1.2 | – |
| YNWNSFGL[Arg(Et)′]F-NH2 (also called Compound No. 220) [[Arg(Et)9]MS10] | 330 | – |
| Fmoc-WNSFGL[Arg(Me)]F-NH2 (also called Compound No. 145) [des(1-2)-Fmoc-[Arg(Me)9]MS10] | 120 | – |
| [dY]N[3Pal]NSF[azaGly]L[Arg(Me)]F-NH2 (also called Compound No. 251) [[D-Tyr1,Pya(3)3,AzaGly7,Arg(Me)9]MS10] | 87 | – |
| [d3Pal]NWNSF[azaGly]L[Arg(Me)]F-NH2 (N-terminus assumed; SMILES CNC(=N)NCCC[C@H](NC(=O)[C@H](CC(C)C)NC(=O)NNC(=O)[C@H](Cc1ccccc1)NC(=O)[C@H](CO)NC(=O)[C@H](CC(N)=O)NC(=O)[C@H](Cc1c[nH]c2ccccc12)NC(=O)[C@H](CC(N)=O)NC(=O)[C@H](N)Cc1cccnc1)C(=O)N[C@@H](Cc1ccccc1)C(N)=O, also called Compound No. 258) [[D-Pya(3)1,AzaGly7,Arg(Me)9]MS10] | 90 | 2 x Metastin (1-54) |
| [dY]NWNSFGL[Arg(Me)]F-NH2 (also: bond 7-8 CONH replaced by CH2NH, also called Compound No. 307) [[7Ψ8,CH2NH,D-Tyr1,Arg(Me)9]MS10] | 64 | – |
| [dY]N[dW]NSFGL[Arg(Me)]F-NH2 (also called Compound No. 142) [[D-Tyr1,D-Trp3,Arg(Me)9]MS10] | 26 | – |
| YNWNSFGLR[Phe(2-F)]-NH2 (also called Compound No. 19) [[Phe(2F)10]MS10] | 8.6 | – |
| YNWNSFGLR[Phe(4-Cl)]-NH2 (also called Compound No. 130) [[Phe(4Cl)10]MS10] | 42 | – |
| YNWNSFGLR[Phe(3,4F2)]-NH2 (also called Compound No. 198) [[Phe(3,4F2)10]MS10] | 170 | – |
| [dY][dN][Cha]NSF[azaGly]L[Arg(Me)]F-NH2 (also called Compound No. 283) [[D-Tyr1,D-Asn2,Cha3,AzaGly7,Arg(Me)9]MS10] | 0.69 | – |
| YNWNSFGLR[Phe(3-F)]-NH2 (also called Compound No. 197) [[Phe(3F)10]MS10] | 170 | – |
| [d3Pal]FNSF[azaGly]L[Arg(Me)]F-NH2 (N-terminus assumed; SMILES CNC(=N)NCCC[C@H](NC(=O)[C@H](CC(C)C)NC(=O)NNC(=O)[C@H](Cc1ccccc1)NC(=O)[C@H](CO)NC(=O)[C@H](CC(N)=O)NC(=O)[C@H](Cc1ccccc1)NC(=O)[C@H](N)Cc1cccnc1)C(=O)N[C@@H](Cc1ccccc1)C(N)=O, also called Compound No. 256) [des(1)-[D-Pya(3)2,Phe3,AzaGly7,Arg(Me)9]MS10] | 22 | 1 x Metastin (1-54) |
| [d3Pal]WNSF[azaGly]L[Arg(Me)]F-NH2 (also called Compound No. 289; [D-Pya(3)2,AzaGly7,Arg(Me)9]MS10-(2-10)) [des(1)-[D-Pya(3)2,AzaGly7,Arg(Me)9]MS10] | 8.4 | 1 x Metastin (1-54) |
| Ac-ANSF[azaGly]L[Arg(Me)]F-NH2 (SMILES CNC(=N)NCCC[C@H](NC(=O)[C@H](CC(C)C)NC(=O)NNC(=O)[C@H](Cc1ccccc1)NC(=O)[C@H](CO)NC(=O)[C@H](CC(N)=O)NC(=O)[C@H](C)NC(C)=O)C(=O)N[C@@H](Cc1ccccc1)C(N)=O) [des(1-2)-Acetyl-[Ala3,AzaGly7,Arg(Me)9]MS10] | – | 1 x Metastin (1-54) |
| YNWNSFGL[Dab]F-NH2 (also called Compound No. 313) [[Dab9]MS10] | 690 | – |

| Binder | IC50 [1] [nM] | Ca ion level-increasing activity (FLIPR) [2] |
| --- | --- | --- |
| YNWNSFGLR[Phe(3-CF3)]-NH2 (also called Compound No. 200) [[Phe(3CF3)10]MS10] | 340 | – |
| {4‑(3-indolyl)butyryl}-NSF[azaGly]L[Arg(Me)]F-NH2 (also called Compound No. 267) [des(1-3)-4-(3-Indolyl)butyryl-[AzaGly7,Arg(Me)9]MS10] | 360 | 2 x Metastin (1-54) |
| [dW]NSFGL[Arg(Me)]F-NH2 (also called Compound No. 223) [des(1-2)-[D-Trp3,Arg(Me)9]MS10] | 760 | – |
| [dA]NWNSF[azaGly]L[Arg(Me)]F-NH2 (N-terminus assumed; SMILES CNC(=N)NCCC[C@H](NC(=O)[C@H](CC(C)C)NC(=O)NNC(=O)[C@H](Cc1ccccc1)NC(=O)[C@H](CO)NC(=O)[C@H](CC(N)=O)NC(=O)[C@H](Cc1c[nH]c2ccccc12)NC(=O)[C@H](CC(N)=O)NC(=O)[C@@H](C)N)C(=O)N[C@@H](Cc1ccccc1)C(N)=O, also called Compound No. 259) [[D-Ala1,AzaGly7,Arg(Me)9]MS10] | 250 | 1 x Metastin (1-54) |
| [dY][dS]WNSF[azaGly]L[Arg(Me)]F-NH2 (N-terminus assumed; SMILES CNC(=N)NCCC[C@H](NC(=O)[C@H](CC(C)C)NC(=O)NNC(=O)[C@H](Cc1ccccc1)NC(=O)[C@H](CO)NC(=O)[C@H](CC(N)=O)NC(=O)[C@H](Cc1c[nH]c2ccccc12)NC(=O)[C@@H](CO)NC(=O)[C@H](N)Cc1ccc(O)cc1)C(=O)N[C@@H](Cc1ccccc1)C(N)=O, also called Compound No. 287) [[D-Tyr1,D-Ser2,AzaGly7,Arg(Me)9]MS10] | 2.3 | 2 x Metastin (1-54) |
| [dY][dN]FNSF[azaGly]L[Arg(Me)]F-NH2 (also called Compound No. 257) [[D-Tyr1,D-Asn2,Phe3,AzaGly7,Arg(Me)9]MS10] | 40 | 3 x Metastin (1-54) |
| [dY][dN]TNSF[azaGly]L[Arg(Me)]F-NH2 (also called Compound No. 284) [[D-Tyr1,D-Asn2,Thr3,AzaGly7,Arg(Me)9]MS10] | 34 | 1 x Metastin (1-54) |
| [dY][dN]TNSF[azaGly]L[Arg(Me)][Phe(4-F)]-NH2 (N-terminus assumed; SMILES CNC(=N)NCCC[C@H](NC(=O)[C@H](CC(C)C)NC(=O)NNC(=O)[C@H](Cc1ccccc1)NC(=O)[C@H](CO)NC(=O)[C@H](CC(N)=O)NC(=O)[C@@H](NC(=O)[C@@H](CC(N)=O)NC(=O)[C@H](N)Cc1ccc(O)cc1)[C@@H](C)O)C(=O)N[C@@H](Cc1ccc(F)cc1)C(N)=O, also called Compound No. 316) [[D-Tyr1,D-Asn2,Thr3,AzaGly7,Arg(Me)9,Phe(4F)10]MS10] | 26 | 1 x Metastin (1-54) |
| [dY][dH]WNSF[azaGly]L[Arg(Me)]F-NH2 (N-terminus assumed; SMILES CNC(=N)NCCC[C@H](NC(=O)[C@H](CC(C)C)NC(=O)NNC(=O)[C@H](Cc1ccccc1)NC(=O)[C@H](CO)NC(=O)[C@H](CC(N)=O)NC(=O)[C@H](Cc1c[nH]c2ccccc12)NC(=O)[C@@H](Cc1c[nH]cn1)NC(=O)[C@H](N)Cc1ccc(O)cc1)C(=O)N[C@@H](Cc1ccccc1)C(N)=O, also called Compound No. 288) [[D-Tyr1,D-His2,AzaGly7,Arg(Me)9]MS10] | 0.072 | 1 x Metastin (1-54) |
| [dY]NFNSFF[azaGly]L[Arg(Me)]F-NH2 (N-terminus assumed; SMILES CNC(=N)NCCC[C@H](NC(=O)[C@H](CC(C)C)NC(=O)NNC(=O)[C@H](Cc1ccccc1)NC(=O)[C@H](Cc1ccccc1)NC(=O)[C@H](CO)NC(=O)[C@H](CC(N)=O)NC(=O)[C@H](Cc1ccccc1)NC(=O)[C@H](CC(N)=O)NC(=O)[C@H](N)Cc1ccc(O)cc1)C(=O)N[C@@H](Cc1ccccc1)C(N)=O, printed in three-letter code: D-Tyr-Asn-Phe-Asn-Ser-Phe-Phe-AzaGly-Leu-Arg(Me)-Phe-NH2; also called Compound No. 270) [Endo-Phe5a-[D-Tyr1,Phe3,AzaGly7,Arg(Me)9]MS10] | 15 | 1 x Metastin (1-54) |
| YNWNSFGLR[Phe(4-CN)]-NH2 (also called Compound No. 77) [[Phe(4CN)10]MS10] | 7.4 | – |
| YNWNSFGLRX (Pya(3)10; C-terminal amide, also called Compound No. 60) [[Pya(3)10]MS10] | 170 | – |
| [dY]N[dW]NSF[azaGly]L[Arg(Me)]F-NH2 (also called Compound No. 236) [[D-Tyr1,D-Trp3,AzaGly7,Arg(Me)9]MS10] | 42 | – |
| [dY]N[2Pal]NSF[azaGly]L[Arg(Me)]F-NH2 (also called Compound No. 285) [[D-Tyr1,Pya(2)3,AzaGly7,Arg(Me)9]MS10] | 40 | – |
| [dY]N[Cha]NS[Cha]GL[Arg(Me)]F-NH2 (also called Compound No. 181) [[D-Tyr1,Cha3,6,Arg(Me)9]MS10] | 19 | – |
| {D‑glucuronyl}-NSF[azaGly]L[Arg(Me)]F-NH2 (also called Compound No. 328) [des(1-3)-D-Glucuronyl-[AzaGly7,Arg(Me)9]MS10] | 470 | – |
| [dN][Cha]NSF[azaGly]L[Arg(Me)]F-NH2 [des(1)-[D-Asn2,Cha3,AzaGly7,Arg(Me)9]MS10] | – | 1 x Metastin (1-54) |
| GuAmb-F[azaGly]L[Arg(Me)]W-NH2 [des(1-5)-GuAmb-[AzaGly7,Arg(Me)9,Trp10]MS10] | – | 5 x Metastin (1-54) |
